The results in this text go back to patent US20030092616A1, “STAT6 activation gene” (priority 2001, published 2003).

B1: 117 (nucleic acid, listed as Homo sapiens)
chain: GAGCGGCGATGCCGGGGCGGCGGCGCCCGAGTCCGGAGCCCGAGCCCGAAGAGGAGCCGCCCCGGCCCCGCGCCCCCCCGGGAGCTCCGGGCCCTGGGCCTGGTTCGGGAGCCCCCGGCAGCCAAGAGGAGGAGGAGGAGCCGGGACTGGTCGAGGGTGACCCGGGGGACGGCGCCATTGAGGACCCGGAGCTGGAAGCTATCAAAGCTCGAGTCAGGGAGATGGAGGAAGAAGCTGAGAAGCTAAAGGAGCTACAGAACGAGGTAGAGAAGCAGATGAATATGAGTCCACCTCCAGGCAATGCTGGCCCGGTGATCATGTCCATTGAGGAGAAGATGGAGGCTGATGCCCGTTCCATCTATGTTGGCAATGTGGACTATGGTGCAACAGCAGAAGAGCTGGAAGCTCACTTTCATGGCTGTGGTTCAGTCAACCGTGTTACCATACTGTGTGACAAATTTAGTGGCCATCCCAAAGGGTTTGCGTATATAGAGTTCTCAGACAAAGAGTCAGTGAGGACTTCCTTGGCCTTAGATGAGTCCCTATTTAGAGGAAGGCAAATCAAGGTGATCCCAAAACGAACCAACAGACCAGGCATCAGCACAACAGACCGGGGTTTTCCACGAGCCCGCTACCGCGCCCGGACCACCAACTACAACAGCTCCCGCTCTCGATTCTACAGTGGTTTTAACAGCAGGCCCCGGGGTCGCGTCTACAGGGGCCGGGCTAGAGCGACATCATGGTATTCCCCTTACTAAAAAAAGTGTGTATTAGGAGGAGAGAGAGGAAAAAAAGAGGAAAGAAGGAAAAAAAAAAGAATTAAAAAAAAAAAAAAGAAAAAC
modifications: CDS (9)..(755)
B2: 349 (nucleic acid, listed as Homo sapiens)
chain: CCCCCCCGAGCGCCGCTCCGGCTGCACCGCGCTCGCTCCGAGTTTCAGGCTCGTGCTAAGCTAGCGCCGTCGTCGTCTCCCTTCAGTCGCCATCATGATTATCTACCGGGACCTCATCAGCCACGATGAGATGTTCTCCGACATCTACAAGATCCGGGAGATCGCGGACGGGTTGTGCCTGGAGGTGGAGGGGAAGATGGTCAGTAGGACAGAAGGTAACATTGATGACTCGCTCATTGGTGGAAATGCCTCCGCTGAAGGCCCCGAGGGCGAAGGTACCGAAAGCACAGTAATCACTGGTGTCGATATTGTCATGAACCATCACCTGCAGGAAACAAGTTTCACAAAAGAAGCCTACAAGAAGTACATCAAAGATTACATGAAATCAATCAAAGGGAAACTTGAAGAACAGAGACCAGAAAGAGTAAAACCTTTTATGACAGGGGCTGCAGAACAAATCAAGCACATCCTTGCTAATTTCAAAAACTACCAGTTCTTTATTGGTGAAAACATGAATCCAGATGGCATGGTTGCTCTATTGGACTACCGTGAGGATGGTGTGACCCCATATATGATTTTCTTTAAGGATGGTTTAGAAATGGAAAAATGTTAACAAATGTGGCAATTATTTTGGATCTATCACCTGTCATCATAACTGGCTTCTGCTTGTCATCCACACAACACCAGGACTTAAGACAAATGGGACTGATGTCATCTTGAGCTCTTCATTTATTTTGACTGTGATTTATTTGGAGTGGAGGCATTGTTTTTAAGAAAAACATGTCATGTAGGTTGTCTAAAAATAAAATGCATTTAAACTCATTTGAGAG
modifications: CDS (95)..(610)
B3: 115 (nucleic acid, listed as Homo sapiens)
chain: GTTTTCCGCCGTCCGTCCGGGCGGGCGGGCGCAGAGTCCCGCGGGCGGCGCGGAAGCGGCGGCGGCGCGGCCGGGGCAGCCATGTCGCCATTGTCTGCGGCGCGGGCGGCCCTGCGGGTCTACGCGGTAGGCGCCGCGGTGATCCTGGCGCAGCTGCTGCGGCGCTGCCGCGGGGGCTTCCTGGAGCCAGTTTTCCCCCCACGACCTGACCGTGTCGCTATAGTGACGGGAGGGACAGATGGCATTGGCTATTCTACAGCGAAGCATCTGGCGAGACTTGGCATGCATGTTATCATAGCTGGAAATAATGACAGCAAAGCCAAACAAGTTGTAAGCAAAATAAAAGAAGAAACCTTGAACGACAAAGTGGAATTTTTATACTGTGACTTGGCTTCCATGACTTCCATCCGGCAGTTTGTGCAGAAGTTCAAGATGAAGAAGATTCCTCTCCATGTCCTGATCAACAATGCTGGGGTGATGATGGTCCCTCAGAGGAAAACCAGAGATGGATTCGAAGAACATTTCGGCCTGAACTACCTAGGGCACTTCCTGCTGACCAACCTTCTCTTGGATACGCTGAAAGAGTCTGGGTCCCCTGGCCACAGTGCGAGGGTGGTCACCGTCTCCTCTGCCACCCATTACGTCGCTGAGCTGAACATGGATGACCTTCAGAGCAGTGCCTGCTACTCACCCCACGCAGCCTACGCCCAGAGCAAGCTGGCCCTTGTCCTGTTCACCTACCACCTCCAGCGGCTGCTGGCGGCTGAGGGAAGCCACGTGACCGCCAACGTGGTGGACCCCGGGGTGGTCAACACGGACCTCTACAAGCACGTGTTCTGGGCCACCCGTCTGGCGAAGAAGCTTCTCGGCTGGTTGCTTTTCAAGACCCCCGATGAAGGAGCGTGGACTTCCATCTACGCAGCAGTCACCCCAGAGCTGGAAGGAGTTGGTGGCCGTTACCTATACAACGAGAAAGAGACCAAGTCCCTCCACGTCACCTACAACCAGAAACTGCAGCAGCAGCTGTGGTCTAAGAGTTGTGAGATGACTGGGGTCCTTGATGTGACCCTGTGATATCCTGTCTCAGGATAGCTGCTGCCCCAAGAAACACATTGCACCTGCCAATAGCTTGTGGGTCTGTGAAGACTGCGGTGTTTGAGTTTCTCACACCCACCTGCCCACAGGGCTCTGTCCTCTAGTTTTGAGACAGCTGCCTCAACCTCTGCAGAACTTCAAGAAGCCAAATAAACATTTTGGAGGATAATCACCCCAAGTGGTCTTCAACCATAAACTTTGTGATTCCAAAGTGCCCAGTTGTCACAGGTGCCATAAATAATTACATTTTCCAACAT
modifications: CDS (82)..(1071)
B4: 345 (nucleic acid, listed as Homo sapiens)
chain: CCAGCCAACGAGCGGAAAATGGCAGACAATTTTTCGCTCCATGATGCGTTATCTGGGTCTGGAAACCCAAACCCTCAAGGATGGCCTGGCGCATGGGGGAACCAGCCTGCTGGGGCAGGGGGCTACCCAGGGGCTTCCTATCCTGGGGCCTACCCCGGGCAGGCACCCCCAGGGGCTTATCCTGGACAGGCACCTCCAGGCGCCTACCATGGAGCACCTGGAGCTTATCCCGGAGCACCTGCACCTGGAGTCTACCCAGGGCCACCCAGCGGCCCTGGGGCCTACCCATCTTCTGGACAGCCAAGTGCCCCCGGAGCCTACCCTGCCACTGGCCCCTATGGCGCCCCTGCTGGGCCACTGATTGTGCCTTATAACCTGCCTTTGCCTGGGGGAGTGGTGCCTCGCATGCTGATAACAATTCTGGGCACGGTGAAGCCCAATGCAAACAGAATTGCTTTAGATTTCCAAAGAGGGAATGATGTTGCCTTCCACTTTAACCCACGCTTCAATGAGAACAACAGGAGAGTCATTGTTTGCAATACAAAGCTGGATAATAACTGGGGAAGGGAAGAAAGACAGTCGGTTTTCCCATTTGAAAGTGGGAAACCATTCAAAATACAAGTACTGGTTGAACCTGACCACTTCAAGGTTGCAGTGAATGATGCTCACTTGTTGCAGTACAATCATCGGGTTAAAAAACTCAATGAAATCAGCAAACTGGGAATTTCTGGTGACATAGACCTCACCAGTGCTTCATATACCATGATATAATCTGAAAGGGGCAGATTAAAAAAAAAAAAAAAGAATCTAAACCTTACATGTGTAAAGGTTTCATGTTCACTGTGAGTGAAAATTTTTACATTCATCAATATCCCTCTTGTAAGTCATCTACTTAATAAATATTACAGTGAAAG
modifications: CDS (19)..(768)
B5: 6 (nucleic acid, listed as Homo sapiens)
chain: TAAAAGAAGAGAAGAGGCTAAAGAAGAAAAGAAGAAAATCAACTTCTTCTTCAAGTGTTTCTTCTGCTGATGAATCAGTGTCTTCATCATCATCCTCTTCCTCTTCTGGTCACAAAAGGCATAAGAAACATAAGAGGAACCGTTCAGAGTCTTCTCGCAGTTCCAGAAGGCATTCATCTAGGGCATCCTCAAATCAGATAGATCAGAATAGGAAAGATGAGTGCTACCCAGTTCCAGCTAATACTTCAGCATCTTTTCTTAACCATAAACAAGAAGTGGAGAAACTACTGGGGAAGCAGGATAGGTTACAGTATGAAAAGACACAGATAAAAGAGAAAGATAGATGCCCTCTCTCTTCATCTTCACTTGAAATACCGGATGATTTTGGAGGTAGGTCTGAAGATCCAAGAGATTTTTATAACAGCTATAAAACCCAAGCAGGTAGTAGCAAAACAGAAAAGCCATATAAATCAGAAAGACATTTTTCCAGTAGAAGAAATTCCTCAGATTCCTTCTGTAGGAATTCAGAGGACAAGATTTATGGTTATAGGAGATTTGAAAAGGATATAGAGGGAAGAAAAGAGCACTATAGAAGGTGGGAACCAGGTTCTGTGAGGCATTCTACCTCACCAGCAAGCTCAGAATACTCTTGGAAGTCAGTTGAGAAATACAAAAAATACGCTCACTCTGGATCACGTGATTTCAGTAGACATGAGCAAAGATACCGTTTAAATACAAATCAAGGAGAATATGAAAGAGAGGACAATTATGGGGAGGATATCAAAACAGAGGTTCCAGAAGAAGATGCACTAAGTAGCAAAGAACACTCAGAAAGCAGTGTTAAGAAAAATTTACCTCAGAATTTACTGAATATATTTAATCAGATAGCTGAATTTGAAAAAGAAAAAGGAAATAAGTCAAAAAATTAATACACCAAGGATATCGGCACCATTACACAAAATGCCATTAAGTGAAGTTTTTGGTTGTATTAGTCATAACAGTTGAGTGCAGAAATCTCTGCTTCTAAAATTATTTGTAGAGATTACAGGAAACAAATGCTTTTAAGTAAGTTTTTCTCAAATTTTGTTTCAGTTCTAGGTCCCTTGTCACAGCTTGGTTTTTAGACTTTTTATGTATATGTTTATGTACAGTATATTACTCTTGACAGTTTGAATTTCTTCACCTAAAGATAATTCTCTGAAAGTACTGTTTCTTCATTCTATTGCGGTATATGAGAATTCCTGGGTGCATCTTATTCTGCTGTTTGAGAGAAAAATTTGTGCATTGAACACTTGGATCATTTTTATAAAAATTAATTTCATTTTCTTTTCTGTTAAATTAAAAATCGTCAGCTTTTGAAAGAT
modifications: CDS (379)..(567)

The subject of the data set is STAT6. Nature of the data set: Screening of full-length cDNA clones for promotion of STAT6 activation (luciferase reporter N4×8-luc). It counts as cell-based. The conditions noted are these: NIH3T3 cells cotransfected with N4×8-luc reporter and cDNA plasmid; 48 h culture, then mouse IL-4 0.5 ng/ml for 6 h. An outline of the steps: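 Promotion of STAT6 activation scored as increase in luciferase signal over null-vector control cells. NIH3T3 cells carried N4×8-luc (100 ng) plus cDNA clone; after 48 h culture, 6 h stimulation with 0.5 ng/ml (final) mouse IL-4 preceded reading.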
A general note: A reporter such as luciferase makes a cellular process visible.
Take B1: the “Activity = (luciferase activity of the gene of each SEQ ID NO:)/(luciferase activity of pME18S-FL3)” value came to 10.1. For B2, the “Activity = (luciferase activity of the gene of each SEQ ID NO:)/(luciferase activity of pME18S-FL3)” value is 24.3. With B3, the “Activity = (luciferase activity of the gene of each SEQ ID NO:)/(luciferase activity of pME18S-FL3)” value is recorded as 8.6. On to B4, for which the “Activity = (luciferase activity of the gene of each SEQ ID NO:)/(luciferase activity of pME18S-FL3)” value is 3.7. Regarding B5, the “Activity = (luciferase activity of the gene of each SEQ ID NO:)/(luciferase activity of pME18S-FL3)” value turned out to be 127.5.
